Usually Kd stands for a measure of binding affinity in units of concentration. Read a high Kd as weaker binding. Broadly, the stoichiometry N is the number of molecules, sites or subunits per partner or assembly.

From publication PMC12368637 come the findings set out here.

In one test the target is Human cystatin C (human) (UniProt P01034). As to the kind of experiment: ITC; 300 uM HSA in the syringe, 30 uM HCC in the cell; PBS; 25.2 °C; MicroCal PEAQ-ITC; single set of identical sites model. For orientation: ITC needs no label: the signal is the heat of the interaction.
Test [1] concerns the target Human serum albumin (human) (UniProt P02768). As to the kind of experiment: NMR (1H-15N HSQC and 15N relaxation); 15N-labelled V57G HCC with and without equimolar HSA (around 0.3 mM each); PBS, 90%/10% H2O/D2O, pH 7.0; 298 K.

As to “Human serum albumin (from UniProt P02768 25-609) (natural protein)”, in the test with Human cystatin C (human), the Kd was determined as 1150 nM, the dH was determined as 1.88 kcal/mol and the stoichiometry N was 0.642.
Consider “V57G mutant of human cystatin C (from UniProt P01034 27-146) (natural protein)”, for which the percent of V57G HCC that interacted with HSA in test [1] was found to be 4%.
